One substance from article PMC2766537 can be followed below.

This assay concerns the target glycosylphosphatidylinositol-anchored avidin test probe (avidin/CD14 fusion) (chicken | human) (UniProt P02701).

In turn, “glycosylphosphatidylinositol-anchored avidin test probe (avidin/CD14 fusion) (from UniProt P02701 25-152; P08571 318-375)” displayed a stoichiometry N of 4.

In general, stoichiometry N refers to a count of units in the complex or per binding partner.
